Data reported in the supplement of paper PMC10126150.
± gives the standard deviation of the averaged measurements.

System: ATP
Assay: switch fluorescence ratio, 500 uM ATP over buffer (Cy3 cluster intensity, sum of 5 cycles each) (fold (ratio)); higher = stronger signal-on switching upon ATP binding; sequences stand for … in TCGTCGGCAGCGTCAGATGTGTATAAGAGACAGTTTTTTTTTTTTTTTTTTTTTTTTT…TC
Details: aptamer strand: ATP DNA aptamer (quencher-CACCTGGGGGAGTATTGCGGAGGAAGG + anchor), 100 nM annealed; ATP concentration: 500 uM
In short: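 Clusters carrying Cy3-labelled switching strands on a modified Illumina MiSeq flow-cell were annealed to 100 nM quencher-labelled ATP aptamer and imaged in selection buffer. They were imaged again after 15 min with 500 uM ATP at 22 °C, over five buffer/ATP cycles with NaOH stripping and re-annealing in between. For each cluster, the fluorescence ratio is the summed Cy3 intensity of the target cycles divided by that of the buffer cycles, averaged per switch-domain sequence. Clusters outside 100-1000 RFU were left out.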
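Note: ATP exposure 15 min at 22 °C before imaging.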

Row | Sequence | switch fluorescence ratio
1 | ACATACTTTA | 1.32 ± 0.015
2 | ACATAGAGAT | 1.02 ± 0.039
3 | ACATAGATTT | 1.03 ± 0.029
4 | ACATAGTTGG | 0.966 ± 0.024
5 | ACATATATGG | 0.9752 ± 0.0051
6 | ACATATTTGA | 1.01 ± 0.03
7 | ACATCAGAAG | 1.02 ± 0.039
8 | ACATCCAATT | 0.99 ± 0.019
9 | ACATCTAGGC | 1.069 ± 0.0093
10 | ACATCTCGTT | 0.96 ± 0.041
11 | ACATGATGTT | 1 ± 0.028
12 | ACATGGCATC | 1.05 ± 0.046
13 | ACATGGGCTA | 1.09 ± 0.11
14 | ACATGGGGAG | 1.02 ± 0.016
15 | ACATTAATTC | 0.99573 ± 0.00079
16 | ACATTATCCA | 1.01 ± 0.0068
17 | ACATTATTTC | 1.05 ± 0.033
18 | ACATTCACGT | 1.52 ± 0.033
19 | ACATTCAGTA | 0.991 ± 0.014
20 | ACATTGACGC | 1.08 ± 0.021
21 | ACATTGGCGG | 0.993 ± 0.066
22 | ACATTGGTAT | 1 ± 0.011
23 | ACATTGGTGG | 0.993 ± 0.026
24 | ACATTTGGGG | 1.03 ± 0.066
25 | ACATTTTACT | 1.12 ± 0.014

Row | Sequence | switch fluorescence ratio
26 | ACCAAAGGCT | 1.03 ± 0.04
27 | ACCAAATTAT | 1.03 ± 0.058
28 | ACCAAGCCAT | 1.09 ± 0.077
29 | ACCAAGGGGT | 1.02 ± 0.054
30 | ACCAATGTTC | 1.03 ± 0.033
31 | ACCAATTGGT | 1.02 ± 0.012
32 | ACCAATTTGC | 1.05 ± 0.043
33 | ACCACAAAGG | 1.48 ± 0.61
34 | ACCACCTTAC | 2.32 ± 0.29
35 | ACCACGGTTG | 1.07 ± 0.023
36 | ACCAGGCTTG | 1.02 ± 0.016
37 | ACCAGTGATG | 1.01 ± 0.039
38 | ACCATCAAAT | 0.9853 ± 0.0068
39 | ACCATCGTAG | 1.0191 ± 0.00047
40 | ACCATGACGG | 1.044 ± 0.0092
41 | ACCATGCGTT | 0.992 ± 0.03
42 | ACCATGGGCT | 0.974 ± 0.038
43 | ACCATGTACT | 1.07 ± 0.016
44 | ACCATTGGGG | 0.993 ± 0.031
45 | ACCATTTTTG | 0.985 ± 0.057
46 | ACCCAAACAA | 1.06 ± 0.028
47 | ACCCCGGTCT | 1.04 ± 0.011
48 | ACCCGAAGGC | 1.08 ± 0.043
49 | ACCCGAGCAC | 2.13 ± 0.054
50 | ACCCGCCTTT | 1.086 ± 0.0021

Row | Sequence | switch fluorescence ratio
51 | ACCCGGGCAG | 1.049 ± 0.0047
52 | ACCCGGGGTC | 1 ± 0.053
53 | ACCCGTTGCC | 1.03 ± 0.057
54 | ACCCTCGGGG | 1.0015 ± 0.00096
55 | ACCCTCTGGG | 1.01 ± 0.021
56 | ACCCTGGACC | 1.066 ± 0.0086
57 | ACCCTGTGTA | 1 ± 0.021
58 | ACCCTTCCAA | 1.72 ± 0.072
59 | ACCCTTTTAC | 1.13 ± 0.052
60 | ACCGAATGTT | 0.999 ± 0.022
61 | ACCGAGGCTT | 1.45 ± 0.051
62 | ACCGCTCGAA | 1.15 ± 0.056
63 | ACCGCTGTGG | 1.06 ± 0.019
64 | ACCGGCCCGG | 0.9848 ± 0.0085
65 | ACCGGCGGTT | 1.01 ± 0.032
66 | ACCGGCGTTT | 1.05 ± 0.051
67 | ACCGGGGGCT | 1.034 ± 0.0052
68 | ACCGGGGGGT | 1.37 ± 0.22
69 | ACCGGGGTTA | 0.986 ± 0.033
70 | ACCGGTGTTC | 1.021 ± 0.0069
71 | ACCGTCTGTA | 1.014 ± 0.0058
72 | ACCGTGGCGT | 1.0212 ± 0.001
73 | ACCGTTTTTT | 1 ± 0.017
74 | ACCTAACACG | 1.19 ± 0.037
75 | ACCTAGTGTG | 1.135 ± 0.0024

Row | Sequence | switch fluorescence ratio
76 | ACCTATGGGA | 1 ± 0.028
77 | ACCTCAGCTT | 1.48 ± 0.021
78 | ACCTGACTTG | 1.06 ± 0.014
79 | ACCTGAGGGG | 1.024 ± 0.0035
80 | ACCTGGGTGG | 1.03 ± 0.036
81 | ACCTTATATA | 1.056 ± 0.0094
82 | ACCTTCGTTG | 1.22 ± 0.003
83 | ACCTTGGGGA | 1.25 ± 0.4
84 | ACCTTTTAAG | 1.23 ± 0.3
85 | ACCTTTTAGG | 0.965 ± 0.036
86 | ACGAAAGTCA | 1.052 ± 0.01
87 | ACGAACAGTT | 1.15 ± 0.047
88 | ACGAAGATGC | 1.24 ± 0.15
89 | ACGAAGGCTA | 1.14 ± 0.028
90 | ACGAAGGGGG | 1.14 ± 0.24
91 | ACGAAGGTCG | 1.03 ± 0.059
92 | ACGACGTTGA | 1.07 ± 0.032
93 | ACGACTGCGT | 1.0213 ± 0.00018
94 | ACGACTTTTT | 1.03 ± 0.063
95 | ACGAGAAGTT | 1.1 ± 0.073
96 | ACGAGCCTAG | 1.33 ± 0.058
97 | ACGAGCGTGG | 1 ± 0.011
98 | ACGAGGATGC | 1.09 ± 0.024
99 | ACGAGGGGGG | 1.02 ± 0.02
100 | ACGAGGTTCT | 1.016 ± 0.003

Row | Sequence | switch fluorescence ratio
101 | ACGAGTCTGC | 0.96588 ± 0.00086
102 | ACGAGTGGGC | 1 ± 0.063
103 | ACGAGTGTCG | 0.964 ± 0.04
104 | ACGATAGAGG | 1.14 ± 0.015
105 | ACGATCAAGG | 1.13 ± 0.024
106 | ACGATCAGCG | 1.022 ± 0.0037
107 | ACGATCATTT | 1.048 ± 0.0024
108 | ACGATCGAAA | 1.24 ± 0.019
109 | ACGATGAACG | 1.04 ± 0.021
110 | ACGATGAAGA | 1.009 ± 0.0026
111 | ACGATGATCT | 1.06 ± 0.019
112 | ACGATGGAAT | 1.45 ± 0.056
113 | ACGATTAGAC | 1.12 ± 0.029
114 | ACGATTGGTA | 1.03 ± 0.092
115 | ACGATTTGGT | 1 ± 0.013
116 | ACGATTTTAG | 1.04 ± 0.041
117 | ACGATTTTTA | 1 ± 0.013
118 | ACGCCATTCT | 1.151 ± 0.0096
119 | ACGCCGTCGA | 1.035 ± 0.0099
120 | ACGCCTGGGC | 1.02 ± 0.023
121 | ACGCCTGGTC | 1.01 ± 0.059
122 | ACGCGACACC | 1.25 ± 0.058
123 | ACGCGGACGG | 1.05 ± 0.016
124 | ACGCGGAGAC | 1.24 ± 0.024
125 | ACGCTGTTGA | 1.03 ± 0.047

Row | Sequence | switch fluorescence ratio
126 | ACGCTTGCTA | 1.02 ± 0.013
127 | ACGCTTTGCA | 0.987 ± 0.01
128 | ACGGAAAACA | 1.019 ± 0.0039
129 | ACGGAACAAG | 1.09 ± 0.12
130 | ACGGAAGTGC | 1.12 ± 0.036
131 | ACGGCACTCT | 1.55 ± 0.0028
132 | ACGGCATAAT | 1.11 ± 0.013
133 | ACGGCATTTG | 1.05 ± 0.024
134 | ACGGCTTTCG | 1.05 ± 0.097
135 | ACGGGAAGGC | 1.09 ± 0.035
136 | ACGGGAGCTT | 1.03 ± 0.041
137 | ACGGGATTAA | 1.04 ± 0.051
138 | ACGGGCCGGG | 1.02 ± 0.12
139 | ACGGGCGGCA | 1.16 ± 0.23
140 | ACGGGCGGTC | 1.01 ± 0.015
141 | ACGGGGCCGT | 0.985 ± 0.031
142 | ACGGGGGAAT | 0.991 ± 0.02
143 | ACGGGGGAGC | 1.03 ± 0.043
144 | ACGGGGGGAA | 1.02 ± 0.019
145 | ACGGGGGTCC | 1.02 ± 0.025
146 | ACGGGGGTTA | 1.02 ± 0.024
147 | ACGGGGTCAG | 0.999 ± 0.026
148 | ACGGGTCCGG | 1.02 ± 0.011
149 | ACGGGTGGCT | 1 ± 0.014
150 | ACGGGTGGGG | 1.05 ± 0.051

Row | Sequence | switch fluorescence ratio
151 | ACGGGTTAAT | 1.01 ± 0.026
152 | ACGGGTTAGA | 1.02 ± 0.036
153 | ACGGGTTGGG | 1.02 ± 0.017
154 | ACGGTCGGGC | 0.9775 ± 0.00067
155 | ACGGTCTTGG | 0.999 ± 0.015
156 | ACGGTGGGGA | 1.04 ± 0.036
157 | ACGGTGGGGG | 1.01 ± 0.025
158 | ACGGTGGGTA | 1 ± 0.038
159 | ACGGTGTATG | 0.989 ± 0.031
160 | ACGGTTCAAT | 1.05 ± 0.011
161 | ACGGTTGAG | 0.96 ± 0.036
162 | ACGTACACTT | 1.45 ± 0.074
163 | ACGTACCGGC | 1.31 ± 0.075
164 | ACGTATAGAA | 1.159 ± 0.0097
165 | ACGTATGAAA | 1.09 ± 0.059
166 | ACGTATGATA | 1.16 ± 0.056
167 | ACGTATGGCT | 0.973 ± 0.021
168 | ACGTATTACA | 1.83 ± 0.87
169 | ACGTCCGATC | 1.11 ± 0.039
170 | ACGTCGTCGG | 0.964 ± 0.018
171 | ACGTCTATGT | 0.992 ± 0.0074
172 | ACGTGCCGGT | 0.99 ± 0.05
173 | ACGTGCGGAG | 1.01 ± 0.016
174 | ACGTGCGGGC | 1.05 ± 0.013
175 | ACGTGCTTAT | 0.976 ± 0.013

Row | Sequence | switch fluorescence ratio
176 | ACGTGGGGGT | 1.01 ± 0.011
177 | ACGTGGGTAG | 0.987 ± 0.041
178 | ACGTGGTGTG | 1.015 ± 0.0075
179 | ACGTGGTTGA | 1.05 ± 0.026
180 | ACGTGTAAGC | 1.03 ± 0.035
181 | ACGTGTGGGC | 1.02 ± 0.017
182 | ACGTGTTTGT | 1.03 ± 0.018
183 | ACGTTAGGGA | 1.07 ± 0.091
184 | ACGTTATGCT | 1.17 ± 0.081
185 | ACGTTATGTG | 1.0491 ± 0.00035
186 | ACGTTCGTAC | 1.04 ± 0.012
187 | ACGTTGGCGT | 0.966 ± 0.041
188 | ACGTTGGGGC | 1.04 ± 0.027
189 | ACGTTGGGTC | 1.02 ± 0.06
190 | ACGTTGTTTG | 0.983 ± 0.02
191 | ACGTTTAGTG | 1.02 ± 0.016
192 | ACGTTTGAGG | 0.988 ± 0.014
193 | ACGTTTGAGT | 0.99 ± 0.016
194 | ACTAAGAGGG | 1.048 ± 0.0032
195 | ACTAAGGCTC | 1.04 ± 0.051
196 | ACTAAGGGG | 1.25 ± 0.35
197 | ACTAATCGTG | 1.02 ± 0.011
198 | ACTAATTGA | 0.996 ± 0.027
199 | ACTACGATAT | 1.34 ± 0.022
200 | ACTACGCCCG | 1.37 ± 0.085
